Source: paper PMC7165476 (Proceedings of the National Academy of Sciences of the …, 2020)
Where two headings read alike, the source gives them in different places. Values belong to the molecule of their own block, whether it stands above or below them.

Tests used:
[1] = target: TNPO1 lacking the disordered acidic loop (TNPO1^Δloop) (human) (UniProt Q92973); assay: ITC
[2] = target: Transportin-3 (TNPO3), recombinant full length (human) (UniProt Q9Y5L0); assay: ITC
[3] = target: Transportin-1 (TNPO1), recombinant full length (human) (UniProt Q92973); assay: ITC
[4] = target: TNPO1 acidic loop (TNPO1^loop) (human); assay: NMR titration
[5] = target: Transportin-3 (TNPO3), recombinant full length (human) (UniProt Q9Y5L0); assay: ITC; remark: listed apart in the source
[6] = target: T1, Transportin-3 (TNPO3), recombinant full length (human, UniProt Q9Y5L0 1-923); assay: ITC
T1 sequence (looked up): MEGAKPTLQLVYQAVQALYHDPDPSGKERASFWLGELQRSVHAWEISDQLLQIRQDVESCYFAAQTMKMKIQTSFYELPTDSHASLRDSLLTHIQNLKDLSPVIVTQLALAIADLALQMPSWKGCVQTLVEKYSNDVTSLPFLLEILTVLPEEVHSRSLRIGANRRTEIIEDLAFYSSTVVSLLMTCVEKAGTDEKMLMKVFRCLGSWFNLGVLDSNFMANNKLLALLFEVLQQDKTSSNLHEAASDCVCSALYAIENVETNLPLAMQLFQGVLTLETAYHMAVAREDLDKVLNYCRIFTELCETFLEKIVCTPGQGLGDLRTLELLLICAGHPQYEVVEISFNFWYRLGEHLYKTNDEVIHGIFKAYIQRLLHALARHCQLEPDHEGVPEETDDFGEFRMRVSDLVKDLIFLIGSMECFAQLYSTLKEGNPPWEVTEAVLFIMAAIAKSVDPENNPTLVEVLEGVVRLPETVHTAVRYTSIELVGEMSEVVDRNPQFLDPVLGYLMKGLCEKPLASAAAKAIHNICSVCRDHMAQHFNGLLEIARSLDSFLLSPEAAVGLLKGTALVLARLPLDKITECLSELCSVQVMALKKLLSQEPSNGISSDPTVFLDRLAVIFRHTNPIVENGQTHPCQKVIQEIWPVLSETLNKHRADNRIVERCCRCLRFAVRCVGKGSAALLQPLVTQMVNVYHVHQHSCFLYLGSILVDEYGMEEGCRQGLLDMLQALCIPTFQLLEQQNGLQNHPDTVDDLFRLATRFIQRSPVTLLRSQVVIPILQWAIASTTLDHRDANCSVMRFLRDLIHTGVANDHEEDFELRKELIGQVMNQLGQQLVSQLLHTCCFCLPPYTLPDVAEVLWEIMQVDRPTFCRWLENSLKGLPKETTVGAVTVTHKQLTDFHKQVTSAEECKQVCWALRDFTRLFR

CIRBP RGG (CIRBPRGG) = target: T2, CIRBP RGG (CIRBPRGG) (Homo sapiens, UniProt Q14011 68-137); assay: NMR
T2 sequence: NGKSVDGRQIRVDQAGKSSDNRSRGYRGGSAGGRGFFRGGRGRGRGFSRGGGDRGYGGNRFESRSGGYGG

Sequence of Transportin-1 (TNPO1), recombinant full length (human) (Q92973 whole entry): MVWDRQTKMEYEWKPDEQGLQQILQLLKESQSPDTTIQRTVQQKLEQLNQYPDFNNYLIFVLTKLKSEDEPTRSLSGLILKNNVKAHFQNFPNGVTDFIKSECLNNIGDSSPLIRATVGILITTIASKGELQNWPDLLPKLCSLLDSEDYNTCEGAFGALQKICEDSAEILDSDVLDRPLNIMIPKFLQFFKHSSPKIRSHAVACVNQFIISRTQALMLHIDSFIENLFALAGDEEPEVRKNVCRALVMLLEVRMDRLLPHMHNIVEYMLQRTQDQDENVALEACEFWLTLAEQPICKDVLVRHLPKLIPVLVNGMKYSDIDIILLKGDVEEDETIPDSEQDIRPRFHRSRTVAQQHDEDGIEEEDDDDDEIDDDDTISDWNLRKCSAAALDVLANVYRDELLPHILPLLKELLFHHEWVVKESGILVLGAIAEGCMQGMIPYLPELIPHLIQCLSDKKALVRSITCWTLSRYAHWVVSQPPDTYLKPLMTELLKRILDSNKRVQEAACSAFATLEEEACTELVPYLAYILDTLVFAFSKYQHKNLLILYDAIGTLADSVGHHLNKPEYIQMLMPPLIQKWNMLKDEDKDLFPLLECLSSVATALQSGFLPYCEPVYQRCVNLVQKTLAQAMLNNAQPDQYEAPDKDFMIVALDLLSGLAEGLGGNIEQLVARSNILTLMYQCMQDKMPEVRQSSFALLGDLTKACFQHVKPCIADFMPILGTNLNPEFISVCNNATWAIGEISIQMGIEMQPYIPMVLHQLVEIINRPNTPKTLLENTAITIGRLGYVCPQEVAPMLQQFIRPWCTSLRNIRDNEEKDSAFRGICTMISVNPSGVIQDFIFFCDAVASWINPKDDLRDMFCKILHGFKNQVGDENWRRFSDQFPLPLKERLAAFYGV
Sequence of TNPO1 lacking the disordered acidic loop (TNPO1^Δloop) (human) (Q92973 whole entry, stated change not applied): as the sequence (Q92973 whole entry) above
Sequence of TNPO1 acidic loop (TNPO1^loop) (human) (Q92973 whole entry): as above

Kd [1]: 8.07 µM | dH [1]: -19 kcal⋅mol^−1 | Kd [2]: 0.114 µM | dH [2]: -34.9 kcal⋅mol^−1 | Kd [3]: 7.8 µM | dH [3]: -10 kcal⋅mol^−1
Molecule: CIRBP C-terminal RSY-rich region (CIRBP^RSY) (domain or fragment)

Kd [4]: 57 µM | Kd [5]: 0.589 µM | Kd [1]: 0.364 µM | dH [1]: -22.3 kcal⋅mol^−1 | Kd [2]: 0.584 µM | dH [2]: -27 kcal⋅mol^−1 | Kd [3]: 0.075 µM | dH [3]: -11.3 kcal⋅mol^−1
Molecule: CIRBP RG/RGG-rich region (CIRBP^RGG) (domain or fragment)

Kd [3]: 0.741 µM | dH [3]: -21 kcal⋅mol^−1
Molecule: Cold-inducible RNA-binding protein (CIRBP), full length, untagged (from UniProt Q14011 1-172) (natural protein)

Kd [2]: 3.3 µM | dH [2]: -23 kcal⋅mol^−1
Molecule: PRMT1-methylated CIRBP RG/RGG region (meCIRBP^RGG) (domain or fragment)

Kd [1]: 0.062 µM | dH [1]: -20.6 kcal⋅mol^−1 | Kd [3]: 0.048 µM | dH [3]: -21.9 kcal⋅mol^−1
Molecule: PY-NLS of FUS (FUS^PY-NLS) (domain or fragment)

Kd [6]: 0.289 µM | dH [6]: -58.6 kcal⋅mol^−1
B1: Cold-inducible RNA-binding protein (CIRBP), full length, untagged (natural protein, human, UniProt Q14011 1-172, looked up)
chain: MASDEGKLFVGGLSFDTNEQSLEQVFSKYGQISEVVVVKDRETQRSRGFGFVTFENIDDAKDAMMAMNGKSVDGRQIRVDQAGKSSDNRSRGYRGGSAGGRGFFRGGRGRGRGFSRGGGDRGYGGNRFESRSGGYGGSRDYYSSRSQSGGYSDRSSGGSYRDSYDSYATHNE

Molecule: UGUGUGUGUGUGUGUGUGUGUGUG (ssRNA) [(UG)12 RNA]
binding result (CIRBP RGG (CIRBPRGG)): binds
